Results on five molecules are retold here after publication PMC3168947 (Molecular cell, 2011).

No end group written: not given here.

For one data set, the target named is ClpA6 (Escherichia coli, UniProt P0A8Q6+P0ABH9, C101S/C73V/E96C). Type of data set: binding, E. coli. The note with it: for Kapp of ClpA6 for ClpS*^F in presence of peptide: fluorescence anisotropy, 200 nM ClpS*^F, 20 μM peptide, ATPγS, Fig. 3A; for ClpA6 bound ClpS*^F more tightly, fold: excess peptide, compared with […] peptide or absence of ligand. In general terms: In fluorescence polarisation assays a small probe gives low polarisation when free and higher when bound to something large.

In another data set the test system is ClpAP. The data set is described as follows: ClpAPS degradation of YLFVQELA-GFP. It counts as biochemical, E. coli.
Data set [1] has as its target T1, fluorescent N-end-rule peptide LLYVQRDSKEC-fl.
T1 peptide: LLYVQRDSKEC(fluorescein maleimide)
Put plainly: fluorescence polarisation.

ClpA6, sequence (P0A8Q6 whole entry C73V/E96C/C101S, one chain of several): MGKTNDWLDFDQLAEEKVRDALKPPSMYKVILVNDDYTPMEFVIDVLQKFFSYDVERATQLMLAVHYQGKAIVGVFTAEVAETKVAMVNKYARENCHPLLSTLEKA

For MLYVQRDSKEC, the “Kapp of ClpA6 for ClpS*^F in presence of peptide” value on ClpA6 is given as ~ 180 nM.
In the case of Trp-CONH2, the “ClpA6 bound ClpS*^F more tightly, fold” value at ClpA6 is on record as “at least 9 fold”.
Regarding Phe-Val [FV], on ClpA6, the “ClpA6 bound ClpS*^F more tightly, fold” value is reported as “at least 9 fold” and the “Kapp of ClpA6 for ClpS*^F in presence of peptide” value was less than 20 nM.

B1: *L13 ClpS with ClpA6 (complex, E. coli)
chain 1: MLNQELELSLNMAFARAREHRHEFMTVEHLLLALLSNPSAREALEACSVDLVALRQELEAFIEQTTPVLPASEEERDTQPTLSFQRVLQRAVFHVQSSGRNEVTGANVLVAIFSEQESQAAYLLRKHEVSRLDVVNFISHGTRKDEPTQSSDPGSQPNSEEQAGGEERMENFTTNLNQLARVGGIDPLIGREKELERAIQVLCRRRKNNPLLVGESGVGKTAIAEGLAWRIVQGDVPEVMADCTIYSLDIGSLLAGTKYRGDFEKRFKALLKQLEQDTNSILFIDEIHTIIGAGAASGGQVDAANLIKPLLSSGKIRVIGSTTYQEFSNIFEKDRALARRFQKIDITEPSIEETVQIINGLKPKYEAHHDVRYTAKAVRAAVELAVKYINDRHLPDKAIDVIDEAGARARLMPVSKRKKTVNVADIESVVARIARIPEKSVSQSDRDTLKNLGDRLKMLVFGQDKAIEALTEAIKMARAGLGHEHKPVGSFLFAGPTGVGKTEVTVQLSKALGIELLRFDMSEYMERHTVSRLIGAPPGYVGFDQGGLLTDAVIKHPHAVLLLDEIEKAHPDVFNILLQVMDNGTLTDNNGRKADFRNVVLVMTTNAGVRETERKSIGLIHQDNSTDAMEEIKKIFTPEFRNRLDNIIWFDHLSTDVIHQVVDKFIVELQVQLDQKGVSLEVSQEARNWLAEKGYDRAMGARPMARVIQDNLKKPLANELLFGSLVDGGQVTVALDKEKNELTYGFQSAQKHKAEAAH
chain 2: MLAEEKVRDALKPPSMYKVILVNDDYTPMEFVIDVLQKFFSYDVERATQLMLAVHYQGKAICGVFTAEVAETKVAMVNKYARENEHPLLCTLEKA
As usually defined, the Kd is a measure of binding affinity in units of concentration. High values mean weaker binding, low ones tighter binding. On to B1, for which the “K2 (unimolecular engagement step, global fit)” value with ClpAP (YLFVQELA-GFP degradation, Vmax = Etotal•kdeg/(1+K2), KM = K1•K2/(1+K2), Fig. 4B) was 0.74. The “steady-state degradation kinetics, in words” value in the data set on ClpAP (YLFVQELA-GFP, 100 nM ClpA6, 200 nM ClpP14, 600 nM ClpS or variants, Fig. 4B) was “roughly similar steady-state degradation kinetics”. Moreover, the “reduction in Vmax compared to ClpS, fold” value in the data set on ClpAP (YLFVQELA-GFP, 100 nM ClpA6, 200 nM ClpP14, 600 nM ClpS variant, Fig. 4B) is on record as 1.3 fold. For the same molecule, the “delivery of N-end-rule substrate for ClpAP degradation” value in the data set with ClpAP (YLFVQELA-GFP, ClpS variants, in words) is recorded as “mediated efficient substrate degradation”. Moreover, the Kd in data set [1] turned out to be 100 nM.

B2: *V18 ClpS with ClpA6 (complex, E. coli)
chain 1: MLNQELELSLNMAFARAREHRHEFMTVEHLLLALLSNPSAREALEACSVDLVALRQELEAFIEQTTPVLPASEEERDTQPTLSFQRVLQRAVFHVQSSGRNEVTGANVLVAIFSEQESQAAYLLRKHEVSRLDVVNFISHGTRKDEPTQSSDPGSQPNSEEQAGGEERMENFTTNLNQLARVGGIDPLIGREKELERAIQVLCRRRKNNPLLVGESGVGKTAIAEGLAWRIVQGDVPEVMADCTIYSLDIGSLLAGTKYRGDFEKRFKALLKQLEQDTNSILFIDEIHTIIGAGAASGGQVDAANLIKPLLSSGKIRVIGSTTYQEFSNIFEKDRALARRFQKIDITEPSIEETVQIINGLKPKYEAHHDVRYTAKAVRAAVELAVKYINDRHLPDKAIDVIDEAGARARLMPVSKRKKTVNVADIESVVARIARIPEKSVSQSDRDTLKNLGDRLKMLVFGQDKAIEALTEAIKMARAGLGHEHKPVGSFLFAGPTGVGKTEVTVQLSKALGIELLRFDMSEYMERHTVSRLIGAPPGYVGFDQGGLLTDAVIKHPHAVLLLDEIEKAHPDVFNILLQVMDNGTLTDNNGRKADFRNVVLVMTTNAGVRETERKSIGLIHQDNSTDAMEEIKKIFTPEFRNRLDNIIWFDHLSTDVIHQVVDKFIVELQVQLDQKGVSLEVSQEARNWLAEKGYDRAMGARPMARVIQDNLKKPLANELLFGSLVDGGQVTVALDKEKNELTYGFQSAQKHKAEAAH
chain 2: MVRDALKPPSMYKVILVNDDYTPMEFVIDVLQKFFSYDVERATQLMLAVHYQGKAICGVFTAEVAETKVAMVNKYARENEHPLLCTLEKA
In the case of B2, binding in data set [1] was characterised by a dissociation constant (Kd) of 83 nM.
